The target of this assay is CV-1A1 Fv-clasp (UniProt Q13043). The assay can be described thus: ELISA; sandwich ELISA: CV-1A1 Fv-clasp or scFv (0.7 µM in 50 mM carbonate buffer pH 9.6) coated on high-binding microplates, VLPs added in twofold serial dilutions, 37°C 2 h, detected with rabbit anti-VLP antisera; data fit to the Michaelis-Menten equation, Km taken as Kd (affinity or avidity); concentration counted as VP1.

With “GI.4 Chiba virus-like particles (VP1 major capsid protein of the norovirus GI.4 Chiba strain) (complex)”, the Kd amounted to 3.77 nM.

Source of the values: PMC11092324.
